Assay results as given in US20200223906A1 (Adimab, published 2020).

Tests used:
[1] = biological target: RSV F protein of subtype A (strain A2) on recombinant mKate-RSV virus (Respiratory syncytial virus subtype A …, UniProt P03420 26-574); assay: cell-based or functional assay
[2] = biological target: RSV F protein of subtype B (18537) on recombinant mKate-RSV virus (Respiratory syncytial virus subtype B …, UniProt P13843 26-574); assay: cell-based or functional assay
[3] = biological target: T1, RSV F subtype A, furin-cleaved ectodomain stabilized in the postfusion conformation (F ΔFP) (Respiratory syncytial virus subtype A, UniProt P03420 26-109; P03420 147-524); assay: BLI, IgG on AHQ sensor, 100 nM antigen
T1 construct: extracellular domain; Trimeric soluble antigen; also called Postfusion subtype A

[4] = biological target: T2, RSV F subtype B, furin-cleaved ectodomain stabilized in the prefusion conformation (DS-Cav1) (Respiratory syncytial virus subtype B); assay: BLI, IgG on AHQ sensor, 100 nM antigen
T2 construct: extracellular domain; Trimeric soluble antigen; also called Prefusion subtype B

[5] = biological target: T3, RSV F subtype A, furin-cleaved ectodomain stabilized in the prefusion conformation (DS-Cav1) (Respiratory syncytial virus subtype A, UniProt P03420 26-524); assay: BLI, IgG on AHQ sensor, 100 nM antigen
T3 construct: extracellular domain; Trimeric soluble antigen; also called Prefusion subtype A

[6] = biological target: T4, RSV F subtype B, furin-cleaved ectodomain stabilized in the postfusion conformation (F ΔFP) (Respiratory syncytial virus subtype B); assay: BLI, IgG on AHQ sensor, 100 nM antigen
T4 construct: extracellular domain; Trimeric soluble antigen; also called Postfusion subtype B

[7] = biological target: T5, RSV F ectodomain stabilized in the postfusion conformation (F ΔFP), subtype B (respiratory syncytial virus subtype B, UniProt P13843 26-109; P13843 147-524); assay: BLI (Octet), IgG on AHQ sensor, 100 nM antigen
T5 construct: extracellular domain; Trimer; also called Postfusion subtype B

[8] = biological target: RSV F protein of subtype A (strain A2) on recombinant mKate-RSV (respiratory syncytial virus subtype A …, UniProt P03420 26-574); assay: cell-based or functional assay
[9] = biological target: RSV F protein of subtype B (18537) on recombinant mKate-RSV (respiratory syncytial virus subtype B …, UniProt P13843 26-574); assay: cell-based or functional assay

Row | Binder | Neut IC50 (µg/ml) subtype A [1] | Neut IC50 (µg/ml) subtype B [2] | Kd [3] | Kd [4] | Kd [5] | Kd [6] | Kd [7] | Neut IC50 subtype A [8] | Neut IC50 subtype B [9]
1 | ADI-18968 (antibody, V domains shown, full-length IgG from yeast) VH: EVQLVESGPGLVKPSQTLSLTCTVSDVLISSGDYYWSWIRQSPGKGLEWLGYIYYTGKTKYNPSLESRITMSVDTSKNQFSLRLSSVTAADTAVYFCTRDLGYSTSSPSFYYGMDVWGQGTTVTVSS VL: EIVLTQSPATLSLSPGERATLSCRASQSVGTYLAWYQQKPGQAPRLLIYDASYRVTGIPARFSASGSATDFTLTISSLEPEDFAVYFCQQRTNWPITFGQGTRLEIK | 0.909 µg/mL | 0.541 µg/mL | 438 pM | 602 pM | 1980 pM | 305 pM |  |  | 
2 | ADI-18876 (antibody, V domains shown, full-length IgG from yeast) VH: QVQLQESGPGLVKPSQTLSLTCTVSGPSISSGDYYWTWIRQPPGKGLEWIGYIYNSGSTDYNPSLKSRITMSLDRSKNQFSLNLSSVTAADTAVYFCARDVGTLVLPTVAYYYGMDVWGQGTTVTVSS VL: EIVLTQSPGTLSLSPGERATLSCRASESISSSYLAWYQQKPGQAPRLLIYDASSRATGIPDRFSGSGSGTDFTLTISSLEPEDFAVYYCQQYGSSPLVTFGPGTKVDIK | 0.037 µg/mL | 0.179 µg/mL | 1710 pM | 316 pM | 707 pM | 179 pM |  |  | 
3 | ADI-18947 (antibody, V domains shown, full-length IgG from yeast) VH: QVQLVQSGGGVVQSGRSLRLSCAASGFTFSDNGMHWVRQAPGKGLEWVAGIFHDGSNKQYAESVKGRFIISRDNSKNTLYLQMNSLRAEDTALYFCARAPYDIWSGYCLDYWGQGTLVTVSS VL: DIRMTQSPATLSLSPGESATLSCRASQSVINNLAWYQQRPGQAPRLLIYGASTRATGIPARFSGSGSETEFTLTISSLQSEDFAVYHCQQYSIWPQTFGQGTKLEIK | 1.3 µg/mL | 3.6 µg/mL | 296 pM | 2200 pM | 2450 pM | 282 pM |  |  | 
4 | ADI-18896 (antibody, V domains shown, full-length IgG from yeast) VH: EVQLLESGGGVVQSGRSLRLSCAASGFTFSDNGMHWVRQAPGKGLEWVAGIFYDGSNKQYADSVKGRFTISRDNSKSTLYLQMNSLRAEDTAVYYCARAPYDIWSGYCLDYWGQGTLVTVSS VL: DIQMTQTPATLSMSPGERATLSCRASQSVNNNLAWYQQRPGQAPRLLIYGASTRATGIPARFSGSGSETEFTLTISSLQSEDFAVYHCQQYSIWPQTFGQGTKLEIK | 1.1 µg/mL | 4.72 µg/mL | 279 pM | 1810 pM | 2270 pM | 270 pM |  |  | 
5 | ADI-18948 (antibody, V domains shown, full-length IgG from yeast; also called Antibody Number 300; Ab # 300) VH: EVQLLESGGGVVQSGRSLRLSCVASGFTFSDSGMHWVRQAPGKGLEWVAGLFYDGSNKQYADSVKGRFTISRDNSKSTLYLQMNSLRAEDTAVYYCARAPYDIWSGYCLDYWGQGTLVTVSS VL: EIVLTQSPATLYMSPGERATLSCRASQSVNNNLAWYQQRPGQAPRLLIYGASTRATGIPARFSGSGSETEFTLTISSLQSEDFAVYHCQQYSIWPQTFGQGTKLEIK | 1.12 µg/mL | 4.35 µg/mL | 257 pM | 2100 pM | 4550 pM | 247 pM |  |  | 
6 | ADI-18955 (antibody, V domains shown, full-length IgG from yeast; also called Antibody Number 306; Ab # 306) VH: EVQLVESGGGVVQSGRSLRLSCAASGFIFSDNGMHWVRQAPGKGLEWVAGIFYDGSNKQYADSVKGRFTISRDNSKNTLYLQMKSLRAEDTAVYYCARAPYDIWSGYCLDYWGQGTLVTVSS VL: DIQVTQSPATLSMSPGERATLSCRASQSVNNNLAWYQQRPGQAPRLLIYGASTRATGIPARFSGSGSETEFTLTISSLQSEDFAVYHCQQYSIWPQTFGQGTKVEIK | 1.93 µg/mL | 3.12 µg/mL | 256 pM | 2370 pM | 599 pM | 250 pM |  |  | 
7 | ADI-18899 (antibody, V domains shown, full-length IgG from yeast) VH: EVQLVESGGGVVQSGRSLRLSCAASGFTFSDNGMHWVRQAPGKGLEWVAGIFYDGSNKQYADSVKGRFTISRDNSKSTLYLQMNSLRAEDTAVYYCARAPYDIWSGYCLDYWGQGTLVTVSS VL: DIRLTQSPATLSMSPGERATLSCRASQSVNNNLAWYQQRPGQAPRLLIYGASTRATGIPARFSGSGSETEFTLTISSLQSEDFAVYHCQQYSIWPQTFGQGTKVDIK | 0.742 µg/mL | 2.7 µg/mL | 266 pM | 1590 pM | 1920 pM | 251 pM |  |  | 
8 | ADI-18984 (antibody, V domains shown, full-length IgG) VH: QVQLQESGPGLVKPSETLSLTCTVSGASVTTNTYYWTWIRQPPGKELEWIGYIHHTGNTHYNPSLESRLTMSLDTSRNQFSLNLRSATTADTAVYYCARGEHFAYWWGNWGQGALVTVSS VL: DIRVTQSPSSVSASVGDRVTITCRASQGIARWLAWYQQKPGKAPKLLIYAASSLQGGVPSRFSGSGYGTDFTLTISSLQPEDFATYYCQQANSFPRTFGQGTKVEIK |  |  |  |  |  |  | 659 pM | > 10 µg/mL | > 10 µg/mL
9 | ADI-18922 (antibody, V domains shown, full-length IgG from yeast; also called Antibody Number 276; Ab # 276) VH: QVQLQESGPGRVKPSETLSLTCSVADGSISSGHYYWGWVRQPPGKGLEWIATIHDSGATYYNPSLQSRVTISVDTSKNQFSLKVNSVTAADTAVYYCASRRGSGWFFDSWGQGTLVTVSS VL: DIVLTQSPATLSVSPGERVTLSCRASHSVNYNLAWYQQKPGQAPRLLIYGSSTRATGLPARFSGSGSGTEFTLTISSLQSEDFAIYYCQQYNNWPPGGTFGQGTKVEIK | > 10 µg/mL | 5.05 µg/mL | 322 pM | 5270 pM | 3470 pM | 287 pM |  |  | 
10 | ADI-18980 (antibody, V domains shown, full-length IgG; also called Antibody Number 328) VH: QVQLVQSGAEVKKPGESLKISCKGFGYSFNSYWIAWVRQMPGKGLECMGIIYPGDSDTRYSPSFQGQVTISVDKSITTAYLQWSSLKVSDTAMYYCAKSNVGNTGWNYWGQGTLVTVSS VL: EIVLTQSPATLSLSPGERATLSCRASHSVATDLAWYQQKPGQAPRLLIYDASKRATDVPARFSGSGSGTDFTLTISSLEPEDVAVYYCQEVRNWPPCTFGQGTKVDIK |  |  |  |  |  |  | 350 pM | 3.6 µg/mL | > 10 µg/mL
11 | ADI-19012 (antibody, V domains shown, full-length IgG; also called Antibody Number 360) VH: EVQLVESGPGLVKPSGTLSLTCAVSGDSIVGSDWWSWIRQPPGKGLEWIGDIYHGGTTSYNPSLKSRVTMSVDKSKNQFSLKLTSVTAADTAVYYCARLSGNCSGGSCYSPFDHWGQGTLVTVSS VL: DIQMTQSPSSLSASVGDRVTITCRASQTINGYLNWYQQRPGKAPKLLISAASSLQSGVPSRFRGSGYGTDFTLTISSLQPEDFATYFCQQSYNTVYTFGQGTKVDIK |  |  |  |  |  |  | 314 pM | > 10 µg/mL | > 10 µg/mL
12 | ADI-18989 (antibody, V domains shown, full-length IgG) VH: EVQLVESGGGLVQPGGSLRLSCAASGFSFNTYSMNWVRQAPGKGLEWLSFISSSSHTLYYADSVKGRFTVFRDNAKHSLFLQMNGLRDEDTAVYFCARSLGSGNYDNEDQTFYYYYGMDVWGQGTTVTVSS VL: ETTLTQSPLSLPVTPGEPASISCRSSQSLLFHSNGHNYLDWYLQKPGQSPQLLIHLGSNRASGVPDRFSGSGSGTDFTLKISRVEPEDVGVYYCMQALQTPYTFGQGTKVEIK |  |  |  |  |  |  | 377 pM | > 10 µg/mL | > 10 µg/mL
13 | ADI-18981 (antibody, V domains shown, full-length IgG; also called Antibody Number 329) VH: EVQLQESGSRLVKPSQTLSLTCSVSGGSLNAGGYLWSWIRQPPGKGLEWVGYIYPSGTTYYNPSLQSRISISQDRSRNQFSLSVASVTAADTAVYYCARCGNEYGEVHPFDIWGQGTTVTVSS VL: EIVLTQSPGTLSLSPGERATLSCRGSPIVGNNYLAWYQQKPGQAPRLLIYAASIRATGIPDRFSGSGSGTDFTLTISRLEPEDFAVYYCQQYGSSPWTFGQGTKVDIK |  |  |  |  |  |  | 280 pM | > 10 µg/mL | > 10 µg/mL
14 | ADI-19001 (antibody, V domains shown, full-length IgG; also called Antibody Number 349) VH: EVQLVESGGGLVKPGRSLRLSCTASGFNFGDYAMSWFRQAPGKGLEWVGFIRSKTYRETREYAASVKGRFTMSRDDFNRIAYLQMNSLKTEDTAMYYCTRQDDFWSGHPYYFEYWGQGTLVTVSS VL: QPVLTQPPSASGSPGQSVTISCTGTNSDVGSYNYVSWYQHHPGKAPKLIIYDVAKRPSGVPDRFSGSKSGNTASLTVSGLQAEDEADYYCSSYAGSNDLGVFGTGTKLTVL |  |  |  |  |  |  | 149 pM | > 10 µg/mL | 3.26 µg/mL
15 | ADI-18946 (antibody, V domains shown, full-length IgG from yeast) VH: QVQLVQSGGGVVQPGRSLRLSCAASGFTFSDYAMHWVRQAPGKGLEWVAIISYDANNKYYADSVKGRFTISRDNSKNTVYLQMNSLRPEDTAVYYCAKEEWLVPAYWGQGILVTVSS VL: QSVLTQPASVSGSPGQSITISCTGTSSDVGGYNYVSWYQQHPGKAPKLLIYEVSNRPSGVSNRFSGSKSGNTASLTISGLQPEDEADYYCSSYSTNSAPFGTGTKLTVL | 0.093 µg/mL | 0.227 µg/mL | 206 pM | 157 pM | 158 pM | 166 pM |  |  | 
